Experimental data taken from the nanobody polyreactivity screen of Harvey et al. (2022).

Assay: yeast display, Sf9 membrane polyspecificity reagent, FACS + sequencing; frameworks hold sequencing errors
Outline: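 Galactose-induced (36–48 hours) yeast carrying a synthetic nanobody display library were exposed to 10% biotinylated, detergent-solubilized Sf9 membrane reagent at 4 °C for 1 hour. FACS followed streptavidin microbead enrichment, using low and high (top ~1%) gates for expression (anti-HA) and reagent binding (streptavidin). Colony PCR, MiSeq 2 × 250 sequencing and CDR-length filtering followed. Labels for polyreactivity reflect the gate of origin.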

QVQLVESGGGLVQAGGSLRLSCAASGRIFTSYAMGWYRQAPGKERELVATITGSTASTYYADSVKGRFTISRDNAKNTVYLQMNSLKPEDTAVYYCAARSYSTYFRYYYWGQGTQVTVSS
polyreactivity (PSR sort gate): high polyreactivity

QVQLEESGGGLVQAGGSLRLSCAASVSIFGVNVMGWYRQAPGKERELVAAISSGGSTNYADSVKGRFTISGDNEKKTVYLLMISLKPDDTAVYFCIAGLGRLYDYWGQGTQVTVSS
polyreactivity (PSR sort gate): low polyreactivity

QVQLVESGGGLVQAGGSHRFSCAASGRIIYTNAMGWYRQAPGKEREFVAVISWGGDTTYYADSVKGRFTISRDNAKNTVYLQMNSLKPEDTAVYYCNAEWGPTYEIYDSWGPGTQVTVSS
polyreactivity (PSR sort gate): low polyreactivity

QVQLVESGGGLVQAGGSLRLSCAASGSIFRRYTMGWYRQAPGKERELVAAISRVGNTNYADSVKGRFTISRDNAKNTVYLQMNSLKPEDTAVYYCAADLYWLLYDEDWYWWEYESDSWGQGTQVTVSS
polyreactivity (PSR sort gate): high polyreactivity

QVQLVESGGGLVQAGGSLRLGCAASGITFNLYAMGWYRQAPGKERELVAAISRSATSTYYADSVKRRFTISRDNAKNTVYLQMNSLKPEDTAVYYCATRGHYRQTINYWGQGTQVTVSS
polyreactivity (PSR sort gate): high polyreactivity

QVQLVETGRGLVQAGGSLRLSCAASGRIFYANAMGWYRQAPGKERELVAAISRTGGSTYYADSVKGRFTISRDNAKNTVYLQMNSLKPEDTAVYYCNALSGVYGYDDWGQGTQVTVSS
polyreactivity (PSR sort gate): high polyreactivity

QVQLVESGGGLVQAGGSLRLSCAASGRTFQLNAMGWYRQAPGKERELVAAISTRGGSTYYADSVKGRFTISRDNAKNTVYLQMNRLKPEDTAVYYCAAVTKTLYRSYFLMYYWGQGTQVTVSS
polyreactivity (PSR sort gate): high polyreactivity

QVQLVESGGGLVQAGGSLRLSCAASGPTFYEYAMGWYRQAPGKERELVARITRGGSTYYADSVKGRFTISRDNAKNTVYLQMNSLKPEDTAVYYCAAPYKDLYPYYEYDYWGHGTQVTVSS
polyreactivity (PSR sort gate): low polyreactivity

QDQIVESGGGLVQAGGSLRLIFAASGLTIARNAMGWYRQAPGKERELVAAISFSGGSTYYADSVKGRFTISRDNAKNTVYLLMNSLKPEDTAVYYCNTLLRRDFNYWGQGTQVTVSS
polyreactivity (PSR sort gate): high polyreactivity

QVQLVESGGGLVQAGGSLRLSCAASGRIFMPYAMGWYRQAPGKERELVAAITCTGGSTYYADSVKGRFTISRDNAKNTVYLQMNSPKPEDTAVYYCNARRGYQQHRRDYWGQGTQVTVSS
polyreactivity (PSR sort gate): low polyreactivity

QVQLVESGGGLVQAGGSLRLSCAASGITFRRYAMGWYRQAPGKESELVAAITSSGGSTYYADSVKGRFTISRDNAKNTVYLLMISLKPEDTAVYYCAAAFFSQYYLYEYWGQGTQVTVSS
polyreactivity (PSR sort gate): high polyreactivity

QVQLVESGGGLVQAGGSLRISCAASGNTFGDYAMGWYRQAPGKERELVAAISRSGGSTSYADSVKGRFTISRDNAKNTVYLQMNSLKPEDTAVYYCAGYWQRFGYDYWGQGTLVTVSS
polyreactivity (PSR sort gate): low polyreactivity

QVQLVESGGGLVQAGGSLRLSCAASGRIYTYYAMGWYRQAPGKERELVAAISSGGSTYYADSVKGRFTISRDNAKNTVYLQMNSLKPEDTAVYYCNRVRRGVWRQDDYWGQGTQVTVSS
polyreactivity (PSR sort gate): high polyreactivity

QVQLVESGGGLVQAGGSLRLSCAASGIIFLYYAMGWYRQAPGKEREFVAAISWSGGRTYYADSVKGRFTISRDNAKNTVYLQMNSLKPEDTAVYYCAATYALRKTGYDYWGQGTQVTVSS
polyreactivity (PSR sort gate): high polyreactivity

QVQLVESGGGLVQAGGSLRLSCAASGSTFNGYAMGWYRQAPGKERELVAAISSRSGRTYYADSVKGRFTISRDNAKNTVYLQMNSLKPEDTAVYYCAAYNGSRRQEFDYWGQGTQVTVSS
polyreactivity (PSR sort gate): high polyreactivity

QVHLVESGGGLVQAGGSLRLSCAASGYTFGYYTMGWYRQAPGKERELFASIDSGGGTNYADSVKGRFTISRDNAKNTVFLQMNSLKPEETAVYYCAVDSYQTGVYFYYVYWDFDLGYWGQVTQVTVSS
polyreactivity (PSR sort gate): low polyreactivity

QVQLVESGGGLVQAGGSLRLSCAASGFIFGGYAMGWYRQAPGKERELVADISSGDSTKYADSVKGRFTISRDNAKNTVYLQMNSLKPEDTAVYYCAADAVVSTWTQFEYDYWGQGTQVTVSS
polyreactivity (PSR sort gate): low polyreactivity
